The labels stand for the following.
B1: Pistol ribozyme (parent)
chain: GGGUCGUUGUUCCAUAAUCGCGUGGAUAUGGCACGCAAGUUUCUACCGGGCACCGUAAAUGUCCGACUGGAGCCGUUCGGGCGGCUAUAAACAGACCUCAGGCCCGAAGCGUGGCGGCACCUGCCGCCGGUGGUAAAAAAGAUCGGAAGAGCACACGUCU

The record followed here is the RNAGym collection of RNA variant scans (doi:10.1021/acssynbio.7b00057).

The variants in the series derive from B1. Kind of series: aptazyme ON/OFF ratio, guanine; higher = stronger switching; co-transcriptional cleavage with and without guanine.
Consider G9U U10C U11C C12G C13G, for which the “aptazyme ON/OFF ratio” value was determined as 1.11.

As for G9U U10C U11C C12G C13U, the “aptazyme ON/OFF ratio” value stood at 1.1. The figure for G9U U10C U11C C12G C13A is 1.08; for G9U U10A C12G C13A it is 1.07. For the variant G9U U10A C12G C13G, the “aptazyme ON/OFF ratio” value amounted to 1.33. As for G9U U10A C12G C13U, the figure is 1.21. With G9U U10C U11A C12A C13U, the “aptazyme ON/OFF ratio” value came out at 1.57. The figure for G9U U10C U11A C12A C13G is 1.24. With G9U U10C U11A C12A C13A, the “aptazyme ON/OFF ratio” value was found to be 1.53. As for G9U U10G U11A C12U, the figure is 1.3; as for G9U U10G U11A C12A, 1.63. Regarding G9U U10G U11A C12G, the “aptazyme ON/OFF ratio” value was found to be 2.23. With G9U U10A C12A, the “aptazyme ON/OFF ratio” value was 1.21.

For G9U U10A C12U, the “aptazyme ON/OFF ratio” value worked out at 1.41. As for G9U U10A C12G, the “aptazyme ON/OFF ratio” value was 1.41. The figure for G9U U10A U11G C12U C13U is 1.7; for G9U U10A U11G C12U C13A it is 1.21. As for G9U U10A U11G C12U C13G, the figure is 1.47. As for G9U U10G U11C C12A C13U, the figure is 1.23; as for G9U U10G U11C C12A C13G, 1.29; as for G9U U10G U11C C12A C13A, 1.34. For the variant G9U U11C C12U, the “aptazyme ON/OFF ratio” value was 2.4.

Turning to G9U U11C C12G, the “aptazyme ON/OFF ratio” value was determined as 1.83. Consider G9U U11C C12A, for which the “aptazyme ON/OFF ratio” value worked out at 2. The figure for G9U U10G U11C C13A is 1.26; for G9U U10G U11C C13G it is 1.1. The figure for G9U U10G U11C C13U is 1.14; for G9U U10C U11C C12A it is 1.08. As for G9U U10C U11C C12U, the figure is 1.31. In the case of G9U U10C U11C C12G, the “aptazyme ON/OFF ratio” value was found to be 1.12. Take G9U U11C C12A C13A: the “aptazyme ON/OFF ratio” value was determined as 1.48. As for G9U U11C C12A C13U, the figure is 1.36; as for G9U U11C C12A C13G, 1.36.

G9U C12A: the “aptazyme ON/OFF ratio” value was determined as 1.08.

For the variant G9U C12G, the “aptazyme ON/OFF ratio” value was 1.75.

As for G9U C12U, the “aptazyme ON/OFF ratio” value turned out to be 2.37.

Take G9U U10C U11G C12G C13G: the “aptazyme ON/OFF ratio” value was determined as 1.24. With G9U U10C U11G C12G C13A, the “aptazyme ON/OFF ratio” value worked out at 1.17. For the variant G9U U10C U11G C12G C13U, the “aptazyme ON/OFF ratio” value was 1.12. Turning to G9U U11C C13U, the “aptazyme ON/OFF ratio” value came out at 1.37. Consider G9U U11C C13G, for which the “aptazyme ON/OFF ratio” value stood at 1.06.

Turning to G9U U11C C13A, the “aptazyme ON/OFF ratio” value came to 1.22. The figure for G9U U11A C12U C13G is 1.5; for G9U U11A C12U C13U it is 1.65; for G9U U11A C12U C13A it is 1.02. The figure for G9C U10G U11C C12G C13G is 1.24; for G9C U10G U11C C12G C13A it is 1.17.

On to G9C U10G U11C C12G C13U, for which the “aptazyme ON/OFF ratio” value was found to be 1.15. G9U U10A U11G: the “aptazyme ON/OFF ratio” value stood at 2.39. The figure for G9U U10A U11C is 1.33; for G9U U10A U11A it is 2.34.

For the variant G9U U10G U11A C13U, the “aptazyme ON/OFF ratio” value amounted to 1.08. In the case of G9U U10G U11A C13A, the “aptazyme ON/OFF ratio” value came to 1.13. Consider G9U U10G U11A C13G, for which the “aptazyme ON/OFF ratio” value was 1.14. The figure for G9U U10G U11G C12A C13G is 1.13; for G9U U10G U11G C12A C13U it is 1.38. The figure for G9U U10G U11G C12A C13A is 1.28; for G9U U10A U11C C12G it is 1.57; for G9U U10A U11C C12U it is 1.79.

Turning to G9U U10A U11C C12A, the “aptazyme ON/OFF ratio” value turned out to be 1.72. As for G9U U11C C12G C13U, the figure is 1.68; as for G9U U11C C12G C13G, 1.28. As for G9U U11C C12G C13A, the figure is 1.3; as for G9U U10G U11A C12G C13G, 1.08; as for G9U U10G U11A C12G C13A, 1.18. As for G9U U10G U11A C12G C13U, the “aptazyme ON/OFF ratio” value was determined as 1.07. Regarding G9U U10G U11C C12A, the “aptazyme ON/OFF ratio” value turned out to be 1.69. The figure for G9U U10G U11C C12G is 1.65; for G9U U10G U11C C12U it is 1.08; for G9U U10C U11A C13U it is 1.48. As for G9U U10C U11A C13G, the “aptazyme ON/OFF ratio” value is 1.09. As for G9U U10C U11A C13A, the figure is 1.31; as for G9U U10C U11C C12A C13U, 1.2; as for G9U U10C U11C C12A C13G, 1.27. The figure for G9U U10C U11C C12A C13A is 1.15; for G9C U10G U11G C12A C13U it is 1.11.

On to G9C U10G U11G C12A C13A, for which the “aptazyme ON/OFF ratio” value was determined as 1.11. As for G9C U10G U11G C12A C13G, the figure is 1.12; as for G9C U11C C12A, 1.25; as for G9C U11C C12U, 1.14.

G9C U11C C12G: the “aptazyme ON/OFF ratio” value was 1.22. The figure for G9U U10C C12U is 1.71; for G9U U10C C12G it is 2.12.
